Reference: the supplement of paper PMC10724198
± gives the standard deviation of the averaged measurements.

How the values were obtained:
Saccharomyces cerevisiae [1] = test: protein stability index of tFT-peptide fusion (C-terminal peptide) (PSI (0-1 scale)); higher = more stable (slower turnover); conditions: genetic background: wild type; temperature: 30 C
Saccharomyces cerevisiae [2] = test: as above
Procedure: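 MPS profiling in S. cerevisiae of the tFT-X12 degron library: putative degron peptides plus stable controls, 12 aa, fused to the C-terminus of a sfGFP-mCherry timer. Cells are FACS-sorted into 8 mCherry/sfGFP bins and deep-sequenced. PSI runs from 0 (unstable) to 1 (stable). Backgrounds are wild type, das1Δ and doa10Δ at 30 °C, and wild type, das1Δ, cdc34-1 and cdc53-1 at 37 °C; 2-3 technical replicates each.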

[3] = genetic background: cdc34-1, temperature: 37 C
[4] = genetic background: cdc53-1, temperature: 37 C
[5] = genetic background: das1 deletion, temperature: 30 C
[6] = genetic background: das1 deletion, temperature: 37 C
[7] = genetic background: doa10 deletion, temperature: 30 C
[8] = genetic background: wild type, temperature: 30 C
[9] = genetic background: wild type, temperature: 37 C
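Also: PSI is a weighted mean of sequencing reads over stability bins, variants kept only with over 10 reads, mCherry proximal and sfGFP distal, peptide attached via GGGS linker.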

## SSMSAVFRLQVC
Saccharomyces cerevisiae [1]
  protein stability index: 0.276 ± 0.017
Saccharomyces cerevisiae [2]; [3]
  protein stability index: 0.567 ± 0.0096
Saccharomyces cerevisiae [2]; [4]
  protein stability index: 0.657 ± 0.0093
Saccharomyces cerevisiae [2]; [5]
  protein stability index: 0.613 ± 0.017
Saccharomyces cerevisiae [2]; [6]
  protein stability index: 0.662 ± 0.0092
Saccharomyces cerevisiae [2]; [7]
  protein stability index: 0.228 ± 0.001
Saccharomyces cerevisiae [2]; [8]
  protein stability index: 0.232 ± 0.015
Saccharomyces cerevisiae [2]; [9]
  protein stability index: 0.299 ± 0.049

## SSRPLSPQSLRL
Saccharomyces cerevisiae [1]
  protein stability index: 0.553 ± 0.17
Saccharomyces cerevisiae [2]; [3]
  protein stability index: 0.637 ± 0.2
Saccharomyces cerevisiae [2]; [4]
  protein stability index: 0.709 ± 0.043
Saccharomyces cerevisiae [2]; [5]
  protein stability index: 0.601 ± 0.051
Saccharomyces cerevisiae [2]; [6]
  protein stability index: 0.71 ± 0.0077
Saccharomyces cerevisiae [2]; [7]
  protein stability index: 0.60715 ± 0.00031
Saccharomyces cerevisiae [2]; [8]
  protein stability index: 0.605 ± 0.067
Saccharomyces cerevisiae [2]; [9]
  protein stability index: 0.658 ± 0.032

## SSVCLYWCCLFV
Saccharomyces cerevisiae [1]
  protein stability index: 0.432 ± 0.011
Saccharomyces cerevisiae [2]; [3]
  protein stability index: 0.522 ± 0.036
Saccharomyces cerevisiae [2]; [4]
  protein stability index: 0.602 ± 0.013
Saccharomyces cerevisiae [2]; [5]
  protein stability index: 0.443 ± 0.041
Saccharomyces cerevisiae [2]; [6]
  protein stability index: 0.535 ± 0.016
Saccharomyces cerevisiae [2]; [7]
  protein stability index: 0.407 ± 0.0018
Saccharomyces cerevisiae [2]; [8]
  protein stability index: 0.426 ± 0.027
Saccharomyces cerevisiae [2]; [9]
  protein stability index: 0.5166 ± 0.00058

## SSVCYFGLLFIV
Saccharomyces cerevisiae [1]
  protein stability index: 0.184 ± 0.0042
Saccharomyces cerevisiae [2]; [3]
  protein stability index: 0.452 ± 0.038
Saccharomyces cerevisiae [2]; [4]
  protein stability index: 0.561 ± 0.015
Saccharomyces cerevisiae [2]; [5]
  protein stability index: 0.44 ± 0.026
Saccharomyces cerevisiae [2]; [6]
  protein stability index: 0.623 ± 0.034
Saccharomyces cerevisiae [2]; [7]
  protein stability index: 0.103 ± 0.0046
Saccharomyces cerevisiae [2]; [8]
  protein stability index: 0.103 ± 0.022
Saccharomyces cerevisiae [2]; [9]
  protein stability index: 0.139 ± 0.022

## SVFRFLFLALLV
Saccharomyces cerevisiae [1]
  protein stability index: 0.191 ± 0.016
Saccharomyces cerevisiae [2]; [3]
  protein stability index: 0.2 ± 0.052
Saccharomyces cerevisiae [2]; [4]
  protein stability index: 0.162 ± 0.018
Saccharomyces cerevisiae [2]; [5]
  protein stability index: 0.282 ± 0.029
Saccharomyces cerevisiae [2]; [6]
  protein stability index: 0.352 ± 0.023
Saccharomyces cerevisiae [2]; [7]
  protein stability index: 0.173 ± 0.0056
Saccharomyces cerevisiae [2]; [8]
  protein stability index: 0.145 ± 0.0078
Saccharomyces cerevisiae [2]; [9]
  protein stability index: 0.18 ± 0.016

## SVFVFFGFIDFL
Saccharomyces cerevisiae [1]
  protein stability index: 0.469 ± 0.011
Saccharomyces cerevisiae [2]; [3]
  protein stability index: 0.52 ± 0.015
Saccharomyces cerevisiae [2]; [4]
  protein stability index: 0.589 ± 0.12
Saccharomyces cerevisiae [2]; [5]
  protein stability index: 0.404 ± 0.036
Saccharomyces cerevisiae [2]; [6]
  protein stability index: 0.6007 ± 0.0035
Saccharomyces cerevisiae [2]; [7]
  protein stability index: 0.369 ± 0.015
Saccharomyces cerevisiae [2]; [8]
  protein stability index: 0.412 ± 0.036
Saccharomyces cerevisiae [2]; [9]
  protein stability index: 0.581 ± 0.0099

## SVLASFFSAFVC
Saccharomyces cerevisiae [1]
  protein stability index: 0.195 ± 0.01
Saccharomyces cerevisiae [2]; [3]
  protein stability index: 0.459 ± 0.0087
Saccharomyces cerevisiae [2]; [4]
  protein stability index: 0.6975 ± 0.0014
Saccharomyces cerevisiae [2]; [5]
  protein stability index: 0.598 ± 0.011
Saccharomyces cerevisiae [2]; [6]
  protein stability index: 0.7258 ± 0.0054
Saccharomyces cerevisiae [2]; [7]
  protein stability index: 0.118 ± 0.015
Saccharomyces cerevisiae [2]; [8]
  protein stability index: 0.118 ± 0.023
Saccharomyces cerevisiae [2]; [9]
  protein stability index: 0.149 ± 0.0027

## SVLLVFRFFWEL
Saccharomyces cerevisiae [1]
  protein stability index: 0.405 ± 0.098
Saccharomyces cerevisiae [2]; [3]
  protein stability index: 0.417 ± 0.012
Saccharomyces cerevisiae [2]; [4]
  protein stability index: 0.461 ± 0.018
Saccharomyces cerevisiae [2]; [5]
  protein stability index: 0.397 ± 0.026
Saccharomyces cerevisiae [2]; [6]
  protein stability index: 0.5056 ± 0.0022
Saccharomyces cerevisiae [2]; [7]
  protein stability index: 0.295 ± 0.018
Saccharomyces cerevisiae [2]; [8]
  protein stability index: 0.292 ± 0.029
Saccharomyces cerevisiae [2]; [9]
  protein stability index: 0.445 ± 0.0082

## SVLVWVFGLFVI
Saccharomyces cerevisiae [1]
  protein stability index: 0.446 ± 0.012
Saccharomyces cerevisiae [2]; [3]
  protein stability index: 0.411 ± 0.012
Saccharomyces cerevisiae [2]; [4]
  protein stability index: 0.525 ± 0.013
Saccharomyces cerevisiae [2]; [5]
  protein stability index: 0.431 ± 0.024
Saccharomyces cerevisiae [2]; [6]
  protein stability index: 0.56 ± 0.012
Saccharomyces cerevisiae [2]; [7]
  protein stability index: 0.42 ± 0.028
Saccharomyces cerevisiae [2]; [8]
  protein stability index: 0.392 ± 0.028
Saccharomyces cerevisiae [2]; [9]
  protein stability index: 0.495 ± 0.015

## SVMTFVFFISAF
Saccharomyces cerevisiae [1]
  protein stability index: 0.344 ± 0.1
Saccharomyces cerevisiae [2]; [3]
  protein stability index: 0.257 ± 0.013
Saccharomyces cerevisiae [2]; [4]
  protein stability index: 0.397 ± 0.021
Saccharomyces cerevisiae [2]; [5]
  protein stability index: 0.243 ± 0.039
Saccharomyces cerevisiae [2]; [6]
  protein stability index: 0.438 ± 0.021
Saccharomyces cerevisiae [2]; [7]
  protein stability index: 0.212 ± 0.0043
Saccharomyces cerevisiae [2]; [8]
  protein stability index: 0.238 ± 0.037
Saccharomyces cerevisiae [2]; [9]
  protein stability index: 0.396 ± 0.0055

## SWRRCLSSIPVA
Saccharomyces cerevisiae [1]
  protein stability index: 0.425 ± 0.013
Saccharomyces cerevisiae [2]; [3]
  protein stability index: 0.383 ± 0.0085
Saccharomyces cerevisiae [2]; [4]
  protein stability index: 0.416 ± 0.012
Saccharomyces cerevisiae [2]; [5]
  protein stability index: 0.319 ± 0.026
Saccharomyces cerevisiae [2]; [6]
  protein stability index: 0.457 ± 0.0086
Saccharomyces cerevisiae [2]; [7]
  protein stability index: 0.276 ± 0.0056
Saccharomyces cerevisiae [2]; [8]
  protein stability index: 0.303 ± 0.035
Saccharomyces cerevisiae [2]; [9]
  protein stability index: 0.438 ± 0.012

## SWVVLVSFLSWR
Saccharomyces cerevisiae [1]
  protein stability index: 0.357 ± 0.0065
Saccharomyces cerevisiae [2]; [3]
  protein stability index: 0.2561 ± 0.0015
Saccharomyces cerevisiae [2]; [4]
  protein stability index: 0.3502 ± 0.0028
Saccharomyces cerevisiae [2]; [5]
  protein stability index: 0.245 ± 0.031
Saccharomyces cerevisiae [2]; [6]
  protein stability index: 0.4285 ± 0.003
Saccharomyces cerevisiae [2]; [7]
  protein stability index: 0.233 ± 0.0082
Saccharomyces cerevisiae [2]; [8]
  protein stability index: 0.232 ± 0.032
Saccharomyces cerevisiae [2]; [9]
  protein stability index: 0.424 ± 0.031

## SWWGDVVWFVVC
Saccharomyces cerevisiae [1]
  protein stability index: 0.282 ± 0.03
Saccharomyces cerevisiae [2]; [3]
  protein stability index: 0.555 ± 0.059
Saccharomyces cerevisiae [2]; [4]
  protein stability index: 0.649 ± 0.015
Saccharomyces cerevisiae [2]; [5]
  protein stability index: 0.501 ± 0.015
Saccharomyces cerevisiae [2]; [6]
  protein stability index: 0.7029 ± 0.0032
Saccharomyces cerevisiae [2]; [7]
  protein stability index: 0.176 ± 0.018
Saccharomyces cerevisiae [2]; [8]
  protein stability index: 0.199 ± 0.03
Saccharomyces cerevisiae [2]; [9]
  protein stability index: 0.381 ± 0.0062

## SYGNGIPIRMLH
Saccharomyces cerevisiae [1]
  protein stability index: 0.329 ± 0.014
Saccharomyces cerevisiae [2]; [3]
  protein stability index: 0.656 ± 0.035
Saccharomyces cerevisiae [2]; [4]
  protein stability index: 0.707 ± 0.026
Saccharomyces cerevisiae [2]; [5]
  protein stability index: 0.641 ± 0.013
Saccharomyces cerevisiae [2]; [6]
  protein stability index: 0.728 ± 0.013
Saccharomyces cerevisiae [2]; [7]
  protein stability index: 0.204 ± 0.013
Saccharomyces cerevisiae [2]; [8]
  protein stability index: 0.217 ± 0.013
Saccharomyces cerevisiae [2]; [9]
  protein stability index: 0.422 ± 0.05

## SYLPSHVYIFLL
Saccharomyces cerevisiae [1]
  protein stability index: 0.128 ± 0.019
Saccharomyces cerevisiae [2]; [3]
  protein stability index: 0.275 ± 0.0049
Saccharomyces cerevisiae [2]; [4]
  protein stability index: 0.309 ± 0.02
Saccharomyces cerevisiae [2]; [5]
  protein stability index: 0.273 ± 0.032
Saccharomyces cerevisiae [2]; [6]
  protein stability index: 0.4417 ± 0.0022
Saccharomyces cerevisiae [2]; [7]
  protein stability index: 0.097 ± 0.0087
Saccharomyces cerevisiae [2]; [8]
  protein stability index: 0.0758 ± 0.019
Saccharomyces cerevisiae [2]; [9]
  protein stability index: 0.129 ± 0.034

## TFLCSSLALAVI
Saccharomyces cerevisiae [1]
  protein stability index: 0.405 ± 0.042
Saccharomyces cerevisiae [2]; [3]
  protein stability index: 0.455 ± 0.03
Saccharomyces cerevisiae [2]; [4]
  protein stability index: 0.509 ± 0.032
Saccharomyces cerevisiae [2]; [5]
  protein stability index: 0.338 ± 0.022
Saccharomyces cerevisiae [2]; [6]
  protein stability index: 0.4985 ± 0.0021
Saccharomyces cerevisiae [2]; [7]
  protein stability index: 0.317 ± 0.023
Saccharomyces cerevisiae [2]; [8]
  protein stability index: 0.334 ± 0.014
Saccharomyces cerevisiae [2]; [9]
  protein stability index: 0.4789 ± 0.00054

## TGYRYVGRFFVV
Saccharomyces cerevisiae [1]
  protein stability index: 0.248 ± 0.01
Saccharomyces cerevisiae [2]; [3]
  protein stability index: 0.653 ± 0.037
Saccharomyces cerevisiae [2]; [4]
  protein stability index: 0.723 ± 0.039
Saccharomyces cerevisiae [2]; [5]
  protein stability index: 0.588 ± 0.016
Saccharomyces cerevisiae [2]; [6]
  protein stability index: 0.691 ± 0.016
Saccharomyces cerevisiae [2]; [7]
  protein stability index: 0.155 ± 0.0032
Saccharomyces cerevisiae [2]; [8]
  protein stability index: 0.163 ± 0.02
Saccharomyces cerevisiae [2]; [9]
  protein stability index: 0.329 ± 0.011

## TLCFRLSWVLLV
Saccharomyces cerevisiae [1]
  protein stability index: 0.0528 ± 0.037
Saccharomyces cerevisiae [2]; [3]
  protein stability index: 0.0812 ± 0.028
Saccharomyces cerevisiae [2]; [4]
  protein stability index: 0.15 ± 0.013
Saccharomyces cerevisiae [2]; [5]
  protein stability index: 0.144 ± 0.02
Saccharomyces cerevisiae [2]; [6]
  protein stability index: 0.22 ± 0.014
Saccharomyces cerevisiae [2]; [7]
  protein stability index: 0.0335 ± 0.006
Saccharomyces cerevisiae [2]; [8]
  protein stability index: 0.0265 ± 0.0028
Saccharomyces cerevisiae [2]; [9]
  protein stability index: 0.0672 ± 0.022

## TLNKDILIIKCA
Saccharomyces cerevisiae [1]
  protein stability index: 0.212 ± 0.0051
Saccharomyces cerevisiae [2]; [3]
  protein stability index: 0.382 ± 0.023
Saccharomyces cerevisiae [2]; [4]
  protein stability index: 0.42 ± 0.036
Saccharomyces cerevisiae [2]; [5]
  protein stability index: 0.286 ± 0.035
Saccharomyces cerevisiae [2]; [6]
  protein stability index: 0.45 ± 0.013
Saccharomyces cerevisiae [2]; [7]
  protein stability index: 0.135 ± 0.022
Saccharomyces cerevisiae [2]; [8]
  protein stability index: 0.175 ± 0.022
Saccharomyces cerevisiae [2]; [9]
  protein stability index: 0.214 ± 0.049

## TNFVVRLRFVLF
Saccharomyces cerevisiae [1]
  protein stability index: 0.366 ± 0.029
Saccharomyces cerevisiae [2]; [3]
  protein stability index: 0.534 ± 0.021
Saccharomyces cerevisiae [2]; [4]
  protein stability index: 0.5485 ± 0.00062
Saccharomyces cerevisiae [2]; [5]
  protein stability index: 0.464 ± 0.016
Saccharomyces cerevisiae [2]; [6]
  protein stability index: 0.522 ± 0.02
Saccharomyces cerevisiae [2]; [7]
  protein stability index: 0.29 ± 0.015
Saccharomyces cerevisiae [2]; [8]
  protein stability index: 0.295 ± 0.0087
Saccharomyces cerevisiae [2]; [9]
  protein stability index: 0.419 ± 0.011
